Source: publication doi:10.1101/2020.11.12.379867

Target: GST-STG^9D (GST-fused C-terminus of STG with nine serine residues replaced with aspartate)
Assay: pull-down

amount of μ3 pulled down (STG^9A = 100%): 21%
B1: flag-tagged μ3 subunit of the adaptor protein AP-3 (μ3A) (natural protein)
chain: MIHSLFLINCSGDIFLEKHWKSVVSQSVCDYFFEAQEKAADVENVPPVISTPHHYLISIYRDKLFFVSVIQTEVPPLFVIEFLHRVADTFQDYFGECSEAAIKDNVVIVYELLEEMLDNGFPLATESNILKELIKPPTILRSVVNSITGSSNVGDTLPTGQLSNIPWRRAGVKYTNNEAYFDVVEEIDAIIDKSGSTVFAEIQGVIDACIKLSGMPDLSLSFMNPRLLDDVSFHPCIRFKRWESERVLSFIPPDGNFRLISYRVSSQNLVAIPVYVKHSISFKENSSCGRFDITIGPKQNMGKTIEGITVTVHMPKVVLNMNLTPTQGSYTFDPVTKVLAWDVGKITPQKLPSLKGLVNLQSGAPKPEENPNLNIQFKIQQLAISGLKVNRLDMYGEKYKPFKGVKYVTKAGKFQVRT
